Measured values published in the supplement of paper PMC10065799, “High-throughput profiling of sequence recognition by tyrosine kinases and SH2 domains using bacterial peptide display” (eLife, 2023).

The sequences below were run against SHP2-C SH2 (assay: SH2 binding enrichment of the phosphorylated peptide, bacterial display (enrichment ratio); higher = better substrate or ligand; peptides without Tyr show the background).
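For SH2 binding enrichment of the phosphorylated peptide, bacterial display in this document: peptide library displayed on the E. coli surface as eCPX fusions, selected cells deep-sequenced, score is each peptide's frequency after selection divided by its frequency in the input.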
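For phosphorylation enrichment, bacterial display in this document: 11-residue human phosphosite peptides and single-mutation variants displayed on the E. coli surface, counted by deep sequencing, each peptide's frequency after selection divided by its frequency in the unselected input library; frequency after pTyr selection over input frequency; kinase dosed for 20-30% of maximal phosphorylation in three min.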

First: GYITSYREEEQ
Second: RLLVFYPWTQR [HBB_Y36_V35F]
The SH2 binding enrichment of the first is lower: 0.573 for the first, 2.1 for the second.

Going from RMDGTYACSYT [FLNB_Y704] to FRAVKYLQMVG [AVPR2_Y117_C112Y_YF], the SH2 binding enrichment rises from 1.02 to 3.15.

Going from LPVHFYSHVEH [PYGM_Y204_G205S] to FRVDCYKNFVA [FHL1_Y213_C209R_YF], the SH2 binding enrichment falls from 8.86 to 0.703.

Compared with IMFTSYFLTIL [TAS2R16_Y239_V235M], HQNGMYRLHQD [SGSH_Y89_G90R] is lower in SH2 binding enrichment: 0.963 for the first, 0.776 for the second.

First: TSLAQYDSNSK [BMX_Y216]
Second: AGIENYKSRFG [NKD2_Y256_T257K]
The SH2 binding enrichment of the first is higher: 0.622 for the first, 0.487 for the second.

First: GVASDYKCIDP [VPS13B_Y1991]
Second: SGDINYGQFAQ [PLCG1_Y210_T209N]
The SH2 binding enrichment of the first is lower: 0.524 for the first, 0.596 for the second.

First: WANPEYTGGFK
Second: SLFNGYVFSGV [NEIL3_Y71_YF]
The SH2 binding enrichment of the first is lower: 0.618 for the first, 0.719 for the second.

Going from EPSLDYMVTKI [CPS1_Y768] to RIDRKYKKVRF [F8_Y442_G439D], the SH2 binding enrichment falls from 0.914 to 0.665.

Each sequence was assayed against c-Src SH2 in the same assay as above.

Going from GYITSYREEEQ to RLLVFYPWTQR [HBB_Y36_V35F], the SH2 binding enrichment rises from 0.49 to 1.8.

Compared with RMDGTYACSYT [FLNB_Y704], FRAVKYLQMVG [AVPR2_Y117_C112Y_YF] is lower in SH2 binding enrichment: 0.923 for the first, 0.552 for the second.

First: LPVHFYSHVEH [PYGM_Y204_G205S]
Second: FRVDCYKNFVA [FHL1_Y213_C209R_YF]
The SH2 binding enrichment of the first is higher: 22.2 for the first, 0.656 for the second.

First: IMFTSYFLTIL [TAS2R16_Y239_V235M]
Second: HQNGMYRLHQD [SGSH_Y89_G90R]
The SH2 binding enrichment of the first is higher: 1.03 for the first, 0.504 for the second.

First: TSLAQYDSNSK [BMX_Y216]
Second: AGIENYKSRFG [NKD2_Y256_T257K]
The SH2 binding enrichment of the first is higher: 0.438 for the first, 0.43 for the second.

First: GVASDYKCIDP [VPS13B_Y1991]
Second: SGDINYGQFAQ [PLCG1_Y210_T209N]
The SH2 binding enrichment of the first is higher: 0.65 for the first, 0.526 for the second.

Going from WANPEYTGGFK to SLFNGYVFSGV [NEIL3_Y71_YF], the SH2 binding enrichment rises from 0.656 to 0.967.

Compared with EPSLDYMVTKI [CPS1_Y768], RIDRKYKKVRF [F8_Y442_G439D] is higher in SH2 binding enrichment: 0.379 for the first, 0.656 for the second.

What follows are sequences tested against Grb2 SH2 (UniProt P62993) in the same assay as above.
Sequence of Grb2 SH2 (P62993 whole entry, looked up): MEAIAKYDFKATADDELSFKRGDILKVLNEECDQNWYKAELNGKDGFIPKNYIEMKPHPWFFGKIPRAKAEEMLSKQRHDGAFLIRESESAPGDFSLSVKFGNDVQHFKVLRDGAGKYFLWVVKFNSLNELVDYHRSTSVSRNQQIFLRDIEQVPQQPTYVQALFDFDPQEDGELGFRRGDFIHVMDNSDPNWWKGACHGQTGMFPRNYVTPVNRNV

Compared with GYITSYREEEQ, RLLVFYPWTQR [HBB_Y36_V35F] is higher in SH2 binding enrichment: 0.646 for the first, 2.4 for the second.

Compared with RMDGTYACSYT [FLNB_Y704], FRAVKYLQMVG [AVPR2_Y117_C112Y_YF] is lower in SH2 binding enrichment: 1.17 for the first, 0.96 for the second.

Going from LPVHFYSHVEH [PYGM_Y204_G205S] to FRVDCYKNFVA [FHL1_Y213_C209R_YF], the SH2 binding enrichment rises from 0.964 to 0.993.

First: IMFTSYFLTIL [TAS2R16_Y239_V235M]
Second: HQNGMYRLHQD [SGSH_Y89_G90R]
The SH2 binding enrichment of the first is higher: 1.04 for the first, 0.869 for the second.

Compared with TSLAQYDSNSK [BMX_Y216], AGIENYKSRFG [NKD2_Y256_T257K] is lower in SH2 binding enrichment: 0.826 for the first, 0.784 for the second.

Compared with GVASDYKCIDP [VPS13B_Y1991], SGDINYGQFAQ [PLCG1_Y210_T209N] is higher in SH2 binding enrichment: 0.888 for the first, 1.07 for the second.

Compared with WANPEYTGGFK, SLFNGYVFSGV [NEIL3_Y71_YF] is lower in SH2 binding enrichment: 0.801 for the first, 0.71 for the second.

Going from EPSLDYMVTKI [CPS1_Y768] to RIDRKYKKVRF [F8_Y442_G439D], the SH2 binding enrichment rises from 1.05 to 1.17.

These sequences were tested against FGFR1 (UniProt P11362) (assay: phosphorylation enrichment, bacterial display (enrichment ratio); higher = better substrate or ligand; peptides without Tyr show the background).
Sequence of FGFR1 (P11362 whole entry, looked up): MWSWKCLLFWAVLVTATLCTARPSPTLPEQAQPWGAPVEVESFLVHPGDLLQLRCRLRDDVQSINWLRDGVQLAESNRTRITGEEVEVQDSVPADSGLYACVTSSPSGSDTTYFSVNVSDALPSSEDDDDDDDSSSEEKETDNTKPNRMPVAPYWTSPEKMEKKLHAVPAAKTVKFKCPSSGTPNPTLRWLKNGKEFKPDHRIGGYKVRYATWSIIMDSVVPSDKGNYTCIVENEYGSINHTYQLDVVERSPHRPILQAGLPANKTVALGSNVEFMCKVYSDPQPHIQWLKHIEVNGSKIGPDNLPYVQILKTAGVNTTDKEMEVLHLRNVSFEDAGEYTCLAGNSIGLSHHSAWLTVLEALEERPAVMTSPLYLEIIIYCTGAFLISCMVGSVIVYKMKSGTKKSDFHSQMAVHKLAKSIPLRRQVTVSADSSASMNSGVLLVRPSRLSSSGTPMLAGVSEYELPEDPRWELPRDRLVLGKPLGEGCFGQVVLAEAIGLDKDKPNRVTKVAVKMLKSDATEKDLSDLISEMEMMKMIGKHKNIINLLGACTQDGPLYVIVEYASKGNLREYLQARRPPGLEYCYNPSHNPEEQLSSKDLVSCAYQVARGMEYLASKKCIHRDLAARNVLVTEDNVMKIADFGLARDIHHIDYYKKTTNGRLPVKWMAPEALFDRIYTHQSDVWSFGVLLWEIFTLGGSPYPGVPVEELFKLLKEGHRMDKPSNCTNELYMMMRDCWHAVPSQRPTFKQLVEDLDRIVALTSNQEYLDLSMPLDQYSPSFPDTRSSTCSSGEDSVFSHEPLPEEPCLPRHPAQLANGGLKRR

Compared with GYITSYREEEQ, RLLVFYPWTQR [HBB_Y36_V35F] is higher in phosphorylation enrichment: 0.595 for the first, 0.877 for the second.

Compared with RMDGTYACSYT [FLNB_Y704], FRAVKYLQMVG [AVPR2_Y117_C112Y_YF] is lower in phosphorylation enrichment: 0.538 for the first, 0.387 for the second.

Compared with LPVHFYSHVEH [PYGM_Y204_G205S], FRVDCYKNFVA [FHL1_Y213_C209R_YF] is lower in phosphorylation enrichment: 0.651 for the first, 0.542 for the second.

First: IMFTSYFLTIL [TAS2R16_Y239_V235M]
Second: HQNGMYRLHQD [SGSH_Y89_G90R]
The phosphorylation enrichment of the first is higher: 0.732 for the first, 0.521 for the second.

Going from TSLAQYDSNSK [BMX_Y216] to AGIENYKSRFG [NKD2_Y256_T257K], the phosphorylation enrichment falls from 0.525 to 0.357.

First: GVASDYKCIDP [VPS13B_Y1991]
Second: SGDINYGQFAQ [PLCG1_Y210_T209N]
The phosphorylation enrichment of the first is higher: 0.724 for the first, 0.289 for the second.

Going from WANPEYTGGFK to SLFNGYVFSGV [NEIL3_Y71_YF], the phosphorylation enrichment rises from 0.43 to 0.562.

Compared with EPSLDYMVTKI [CPS1_Y768], RIDRKYKKVRF [F8_Y442_G439D] is lower in phosphorylation enrichment: 0.814 for the first, 0.72 for the second.

The sequences below were run on c-Abl (mouse) in the same assay as above.

Compared with GYITSYREEEQ, RLLVFYPWTQR [HBB_Y36_V35F] is higher in phosphorylation enrichment: 0.879 for the first, 1.02 for the second.

Compared with RMDGTYACSYT [FLNB_Y704], FRAVKYLQMVG [AVPR2_Y117_C112Y_YF] is lower in phosphorylation enrichment: 1.47 for the first, 0.629 for the second.

Compared with LPVHFYSHVEH [PYGM_Y204_G205S], FRVDCYKNFVA [FHL1_Y213_C209R_YF] is lower in phosphorylation enrichment: 1.2 for the first, 0.979 for the second.

Compared with IMFTSYFLTIL [TAS2R16_Y239_V235M], HQNGMYRLHQD [SGSH_Y89_G90R] is lower in phosphorylation enrichment: 0.955 for the first, 0.549 for the second.

Compared with TSLAQYDSNSK [BMX_Y216], AGIENYKSRFG [NKD2_Y256_T257K] is lower in phosphorylation enrichment: 0.543 for the first, 0.512 for the second.

Compared with GVASDYKCIDP [VPS13B_Y1991], SGDINYGQFAQ [PLCG1_Y210_T209N] is higher in phosphorylation enrichment: 0.496 for the first, 0.874 for the second.

Going from WANPEYTGGFK to SLFNGYVFSGV [NEIL3_Y71_YF], the phosphorylation enrichment falls from 0.917 to 0.624.

First: EPSLDYMVTKI [CPS1_Y768]
Second: RIDRKYKKVRF [F8_Y442_G439D]
The phosphorylation enrichment of the first is lower: 0.606 for the first, 1.3 for the second.

Each sequence was assayed against Fes (UniProt P07332) in the same assay as above.
Sequence of Fes (P07332 whole entry, looked up): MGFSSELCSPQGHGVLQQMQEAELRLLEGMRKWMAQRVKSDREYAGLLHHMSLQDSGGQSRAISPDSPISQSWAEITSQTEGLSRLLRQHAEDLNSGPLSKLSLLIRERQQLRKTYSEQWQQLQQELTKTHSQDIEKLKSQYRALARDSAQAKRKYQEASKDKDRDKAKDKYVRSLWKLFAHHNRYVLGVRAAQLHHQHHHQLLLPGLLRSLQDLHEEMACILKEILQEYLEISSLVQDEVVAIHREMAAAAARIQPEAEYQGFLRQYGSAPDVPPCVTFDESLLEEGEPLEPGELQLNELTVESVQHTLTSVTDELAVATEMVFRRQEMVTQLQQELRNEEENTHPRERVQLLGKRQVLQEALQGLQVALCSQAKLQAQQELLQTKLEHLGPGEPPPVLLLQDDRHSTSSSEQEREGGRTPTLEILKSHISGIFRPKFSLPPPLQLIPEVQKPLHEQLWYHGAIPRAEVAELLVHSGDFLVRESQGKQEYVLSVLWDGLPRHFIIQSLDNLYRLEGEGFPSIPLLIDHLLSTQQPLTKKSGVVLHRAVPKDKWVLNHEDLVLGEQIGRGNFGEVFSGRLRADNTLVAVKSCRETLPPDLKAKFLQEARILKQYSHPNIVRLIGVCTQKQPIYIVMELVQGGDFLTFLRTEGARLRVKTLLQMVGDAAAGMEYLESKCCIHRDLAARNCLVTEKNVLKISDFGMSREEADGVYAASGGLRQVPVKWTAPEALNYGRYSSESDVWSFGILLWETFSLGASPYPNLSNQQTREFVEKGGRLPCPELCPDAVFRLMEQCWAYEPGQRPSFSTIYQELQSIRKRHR

First: GYITSYREEEQ
Second: RLLVFYPWTQR [HBB_Y36_V35F]
The phosphorylation enrichment of the first is lower: 1.37 for the first, 1.47 for the second.

First: RMDGTYACSYT [FLNB_Y704]
Second: FRAVKYLQMVG [AVPR2_Y117_C112Y_YF]
The phosphorylation enrichment of the first is lower: 1.02 for the first, 1.26 for the second.

Going from LPVHFYSHVEH [PYGM_Y204_G205S] to FRVDCYKNFVA [FHL1_Y213_C209R_YF], the phosphorylation enrichment falls from 1.63 to 1.49.

Going from IMFTSYFLTIL [TAS2R16_Y239_V235M] to HQNGMYRLHQD [SGSH_Y89_G90R], the phosphorylation enrichment falls from 1.52 to 0.971.

First: TSLAQYDSNSK [BMX_Y216]
Second: AGIENYKSRFG [NKD2_Y256_T257K]
The phosphorylation enrichment of the first is higher: 0.736 for the first, 0.486 for the second.

First: GVASDYKCIDP [VPS13B_Y1991]
Second: SGDINYGQFAQ [PLCG1_Y210_T209N]
The phosphorylation enrichment of the first is higher: 1.01 for the first, 0.683 for the second.

First: WANPEYTGGFK
Second: SLFNGYVFSGV [NEIL3_Y71_YF]
The phosphorylation enrichment of the first is higher: 1 for the first, 0.77 for the second.

First: EPSLDYMVTKI [CPS1_Y768]
Second: RIDRKYKKVRF [F8_Y442_G439D]
The phosphorylation enrichment of the first is higher: 1.14 for the first, 1 for the second.

What follows are sequences tested against MERTK (UniProt Q12866) in the same assay as above.
Sequence of MERTK (Q12866 whole entry, looked up): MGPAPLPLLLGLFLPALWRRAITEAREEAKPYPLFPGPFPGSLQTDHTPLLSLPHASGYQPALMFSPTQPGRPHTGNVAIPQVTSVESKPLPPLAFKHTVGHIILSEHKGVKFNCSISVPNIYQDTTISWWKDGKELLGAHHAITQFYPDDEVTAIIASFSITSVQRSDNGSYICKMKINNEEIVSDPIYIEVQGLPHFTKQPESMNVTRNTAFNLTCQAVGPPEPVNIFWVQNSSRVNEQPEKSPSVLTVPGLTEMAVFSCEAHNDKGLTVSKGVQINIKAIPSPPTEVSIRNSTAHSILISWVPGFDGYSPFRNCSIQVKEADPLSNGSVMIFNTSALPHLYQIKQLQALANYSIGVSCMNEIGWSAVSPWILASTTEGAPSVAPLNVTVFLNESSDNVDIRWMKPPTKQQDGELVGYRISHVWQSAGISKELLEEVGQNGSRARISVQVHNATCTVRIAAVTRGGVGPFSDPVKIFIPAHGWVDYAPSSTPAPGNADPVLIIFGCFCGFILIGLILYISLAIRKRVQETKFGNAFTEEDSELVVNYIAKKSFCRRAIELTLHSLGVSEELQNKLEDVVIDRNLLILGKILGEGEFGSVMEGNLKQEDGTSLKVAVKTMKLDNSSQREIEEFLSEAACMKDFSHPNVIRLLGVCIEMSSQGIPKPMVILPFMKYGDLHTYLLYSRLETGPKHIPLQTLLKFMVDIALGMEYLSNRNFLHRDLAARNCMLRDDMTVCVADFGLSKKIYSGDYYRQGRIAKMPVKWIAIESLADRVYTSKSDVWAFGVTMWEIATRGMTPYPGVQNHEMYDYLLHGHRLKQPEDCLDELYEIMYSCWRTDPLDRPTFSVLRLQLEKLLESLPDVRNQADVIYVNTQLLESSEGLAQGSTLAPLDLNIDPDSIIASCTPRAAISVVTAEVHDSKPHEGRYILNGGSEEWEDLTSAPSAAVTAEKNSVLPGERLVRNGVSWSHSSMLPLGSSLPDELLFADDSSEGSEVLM

Going from GYITSYREEEQ to RLLVFYPWTQR [HBB_Y36_V35F], the phosphorylation enrichment rises from 0.442 to 0.512.

Going from RMDGTYACSYT [FLNB_Y704] to FRAVKYLQMVG [AVPR2_Y117_C112Y_YF], the phosphorylation enrichment falls from 0.757 to 0.366.

First: LPVHFYSHVEH [PYGM_Y204_G205S]
Second: FRVDCYKNFVA [FHL1_Y213_C209R_YF]
The phosphorylation enrichment of the first is higher: 0.859 for the first, 0.496 for the second.

Going from IMFTSYFLTIL [TAS2R16_Y239_V235M] to HQNGMYRLHQD [SGSH_Y89_G90R], the phosphorylation enrichment falls from 0.476 to 0.414.

Going from TSLAQYDSNSK [BMX_Y216] to AGIENYKSRFG [NKD2_Y256_T257K], the phosphorylation enrichment falls from 0.444 to 0.412.

Going from GVASDYKCIDP [VPS13B_Y1991] to SGDINYGQFAQ [PLCG1_Y210_T209N], the phosphorylation enrichment rises from 0.365 to 0.387.

Going from WANPEYTGGFK to SLFNGYVFSGV [NEIL3_Y71_YF], the phosphorylation enrichment rises from 0.364 to 0.472.

Compared with EPSLDYMVTKI [CPS1_Y768], RIDRKYKKVRF [F8_Y442_G439D] is higher in phosphorylation enrichment: 0.469 for the first, 1.19 for the second.

The sequences below were run on Fer (mouse) in the same assay as above.

Going from GYITSYREEEQ to RLLVFYPWTQR [HBB_Y36_V35F], the phosphorylation enrichment rises from 0.616 to 0.65.

Compared with RMDGTYACSYT [FLNB_Y704], FRAVKYLQMVG [AVPR2_Y117_C112Y_YF] is lower in phosphorylation enrichment: 0.617 for the first, 0.366 for the second.

Going from LPVHFYSHVEH [PYGM_Y204_G205S] to FRVDCYKNFVA [FHL1_Y213_C209R_YF], the phosphorylation enrichment falls from 1.26 to 0.58.

Going from IMFTSYFLTIL [TAS2R16_Y239_V235M] to HQNGMYRLHQD [SGSH_Y89_G90R], the phosphorylation enrichment rises from 0.579 to 0.66.

Compared with TSLAQYDSNSK [BMX_Y216], AGIENYKSRFG [NKD2_Y256_T257K] is higher in phosphorylation enrichment: 0.37 for the first, 0.409 for the second.

Compared with GVASDYKCIDP [VPS13B_Y1991], SGDINYGQFAQ [PLCG1_Y210_T209N] is lower in phosphorylation enrichment: 0.587 for the first, 0.423 for the second.

First: WANPEYTGGFK
Second: SLFNGYVFSGV [NEIL3_Y71_YF]
The phosphorylation enrichment of the first is lower: 0.413 for the first, 0.494 for the second.

First: EPSLDYMVTKI [CPS1_Y768]
Second: RIDRKYKKVRF [F8_Y442_G439D]
The phosphorylation enrichment of the first is lower: 0.78 for the first, 0.934 for the second.
